The record followed here is IntAct's records for PubMed 22927794.

B1: Long arms of the bivalent protein 1 (Caenorhabditis elegans), Q17604 (parent)
chain: MVSHKKNDRPRPLWILKIHKRLSLFEFKRYATGIGKDDGQDISWVLKGNAKNNVYQVTVETMENCETDECKKVIWVPDELAESTGTMFEDFKEDQPQESVSSISNNEANWGSSVNELDENYEKMQKEETFDPYDSDSDTSEDSDFDEDFEDSDKTMCSGQS

The variants in the first experiment derive from B1. Particulars: with glc7b_caeel gsp-2, P48727.
Sequence of glc7b_caeel gsp-2, P48727 (P48727 whole entry): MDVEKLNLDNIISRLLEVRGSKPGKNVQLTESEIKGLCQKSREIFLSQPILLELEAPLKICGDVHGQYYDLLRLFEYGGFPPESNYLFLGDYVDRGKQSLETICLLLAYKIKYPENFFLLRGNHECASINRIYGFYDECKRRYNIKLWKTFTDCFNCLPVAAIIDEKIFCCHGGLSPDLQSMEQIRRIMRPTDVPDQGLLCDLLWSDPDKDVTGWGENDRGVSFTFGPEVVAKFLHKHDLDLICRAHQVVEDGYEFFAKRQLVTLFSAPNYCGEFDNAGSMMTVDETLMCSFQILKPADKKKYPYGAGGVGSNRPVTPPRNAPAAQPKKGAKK
Turning to MVSHKKNDRPRPLWILKIHKRLSLFEFKRYATGIGKDDGQDISWVLKGNAKNNVYQVTVETMENCETDECKKAIAVPDELAESTGTMFEDFKEDQPQESVSSISNNEANWGSSVNELDENYEKMQKEETFDPYDSDSDTSEDSDFDEDFEDSDKTMCSGQS [V73A;W75A], the “effect of a mutation on the interaction” value is “increasing interaction strength”.

Another experiment covers variants of B1. Conditions: with glc7a_caeel gsp-1, Q27497.
Sequence of glc7a_caeel gsp-1, Q27497 (Q27497 whole entry): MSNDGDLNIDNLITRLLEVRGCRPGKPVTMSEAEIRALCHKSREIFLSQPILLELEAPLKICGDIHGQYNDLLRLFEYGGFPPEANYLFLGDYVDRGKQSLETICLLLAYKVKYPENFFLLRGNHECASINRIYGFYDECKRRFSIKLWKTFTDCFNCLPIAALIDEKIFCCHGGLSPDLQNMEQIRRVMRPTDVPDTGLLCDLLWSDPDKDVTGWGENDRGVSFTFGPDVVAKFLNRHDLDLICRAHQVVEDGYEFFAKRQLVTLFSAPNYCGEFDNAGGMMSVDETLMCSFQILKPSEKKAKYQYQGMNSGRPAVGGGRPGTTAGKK
In the case of MVSHKKNDRPRPLWILKIHKRLSLFEFKRYATGIGKDDGQDISWVLKGNAKNNVYQVTVETMENCETDECKKAIAVPDELAESTGTMFEDFKEDQPQESVSSISNNEANWGSSVNELDENYEKMQKEETFDPYDSDSDTSEDSDFDEDFEDSDKTMCSGQS [V73A;W75A], the “effect of a mutation on the interaction” value is given as “decreasing interaction strength”.
